# B1: S. pombe Eic1 (natural protein, UniProt O42995 1-112, looked up)
# chain: MDLMPLEKARAIEIAFDNVFHNTKIPDNLQQFDAILKRLERRRFIPTENQKPRVYETELLVLRFREFGVKDNHNHPINLHSLRSKSLIRAQGKKLDLHNRVFLRRNVRAVKM
# B2: S. pombe Mis18 (natural protein, UniProt Q9P802 1-194, looked up)
# chain: MSQTETSHSGYIDFKKESQPSVFQCKKCFQIVGDSNAWVISHREYLSFTLSDAVENSVRVEDTFKRSDDGLCVYSELSCTRCNEVIGKVYNSTPIYLDDIRDMYTFSMDKLQAYQLGNKTVNPEGLTRYQVDLEMREDIIKLKSFCLSLYEKFELHDETLRSVKETISSLKKPKIEGKEGKKEKARTYSKRTRK
# Experiments:
# [1] = biological target: Mis16-Eic1 heterodimer (S. pombe) (UniProt O94244); experiment: AUC
# [2] = biological target: Mis18 C-terminal helical domain (Mis18C) (S. pombe) (UniProt Q9P802); experiment: AUC
# [3] = biological target: S. pombe Mis16 (S. pombe) (UniProt O94244); experiment: ITC
# [4] = biological target: T1, S. pombe Mis16 (S. pombe, UniProt O94244 1-430); experiment: AUC
# T1 sequence (looked up): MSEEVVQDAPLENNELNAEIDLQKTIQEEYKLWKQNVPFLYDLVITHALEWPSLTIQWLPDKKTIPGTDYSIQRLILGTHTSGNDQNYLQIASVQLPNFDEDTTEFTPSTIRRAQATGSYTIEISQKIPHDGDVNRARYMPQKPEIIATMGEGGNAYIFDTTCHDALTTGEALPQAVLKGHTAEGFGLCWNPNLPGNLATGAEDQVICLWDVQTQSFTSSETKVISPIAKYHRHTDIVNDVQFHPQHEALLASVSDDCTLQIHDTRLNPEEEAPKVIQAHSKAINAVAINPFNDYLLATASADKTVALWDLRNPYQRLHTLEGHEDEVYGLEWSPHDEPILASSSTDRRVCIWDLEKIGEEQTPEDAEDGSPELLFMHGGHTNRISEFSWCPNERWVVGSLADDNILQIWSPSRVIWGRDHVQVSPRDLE
# [5] = biological target: Mis16-Eic1 heterodimer (S. pombe) (UniProt O94244); experiment: AUC; remark: listed apart in the source
# [6] = biological target: the molecule itself; experiment: AUC
molecule,measurement,setting,value
Mis18 C-terminal helical domain (Mis18C) (from UniProt Q9P802 1-194) (domain or fragment),stoichiometry N (Mis18C per Mis16-Eic1 heterodimer),[1],2
same,stoichiometry N,[2],2
Mis18C fused to maltose binding protein (MBP-Mis18C) (domain or fragment),stoichiometry N (MBP-Mis18C per Mis16-Eic1 heterodimer),[1],2
Trx-Eic1-CT (wild-type) (from UniProt O42995 91-112) (domain or fragment),Kd,[3],20.8 nM
B1,stoichiometry N,[4],1 Eic1 per Mis16
B2,stoichiometry N (Mis18 per Mis16-Eic1 heterodimer),[5],2
same,stoichiometry N,[6],4
